In patent US20080058636A1, “METHODS OF MYOCARDIAL IMAGING” (Epix Pharmaceuticals, Inc., priority 2005, published 2008):
Bridge positions count the residues as written; N and C are the ends. Square brackets hold non-standard residues; d marks the D form. Ends that are not written are not given here.

Legend:
[1] = target: human collagen type I (acid soluble, extracted from placenta, Sigma C7774) (human) (UniProt P02452); assay: dried collagen assay
[2] = target: rat collagen (acid soluble, type I, rat tail, Upstate 08-115) (rat) (UniProt P02454); assay: dried collagen assay
rat collagen (acid soluble, type I, rat tail, Upstate 08-115) (rat), sequence (P02454 152-1207, chain 1 of 2): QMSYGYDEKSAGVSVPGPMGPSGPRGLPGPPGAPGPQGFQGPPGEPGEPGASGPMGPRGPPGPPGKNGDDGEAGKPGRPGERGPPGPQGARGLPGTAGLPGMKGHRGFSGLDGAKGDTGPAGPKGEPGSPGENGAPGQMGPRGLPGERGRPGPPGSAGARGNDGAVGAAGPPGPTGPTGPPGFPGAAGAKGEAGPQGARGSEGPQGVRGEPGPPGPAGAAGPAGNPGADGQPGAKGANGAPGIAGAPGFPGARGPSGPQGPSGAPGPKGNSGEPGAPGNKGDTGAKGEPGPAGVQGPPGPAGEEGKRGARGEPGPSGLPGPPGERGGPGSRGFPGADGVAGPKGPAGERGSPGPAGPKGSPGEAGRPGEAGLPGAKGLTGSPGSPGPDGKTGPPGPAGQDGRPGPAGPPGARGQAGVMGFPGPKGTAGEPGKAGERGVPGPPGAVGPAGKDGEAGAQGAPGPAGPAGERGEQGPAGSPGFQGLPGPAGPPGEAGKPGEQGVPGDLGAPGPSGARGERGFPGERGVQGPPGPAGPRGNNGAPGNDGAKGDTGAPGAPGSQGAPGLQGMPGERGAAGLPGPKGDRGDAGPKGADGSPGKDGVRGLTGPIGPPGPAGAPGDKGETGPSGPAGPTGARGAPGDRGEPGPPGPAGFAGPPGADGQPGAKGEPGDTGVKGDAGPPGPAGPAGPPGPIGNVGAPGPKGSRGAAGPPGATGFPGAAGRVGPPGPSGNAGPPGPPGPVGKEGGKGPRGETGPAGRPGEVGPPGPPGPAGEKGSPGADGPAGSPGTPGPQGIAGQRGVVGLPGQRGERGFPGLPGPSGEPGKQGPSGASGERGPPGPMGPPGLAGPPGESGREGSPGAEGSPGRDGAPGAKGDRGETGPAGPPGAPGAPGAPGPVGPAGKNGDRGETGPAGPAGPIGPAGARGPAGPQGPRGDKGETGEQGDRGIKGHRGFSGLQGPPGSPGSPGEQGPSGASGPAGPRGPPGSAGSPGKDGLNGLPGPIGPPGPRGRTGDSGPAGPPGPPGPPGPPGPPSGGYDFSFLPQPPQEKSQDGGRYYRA
rat collagen (acid soluble, type I, rat tail, Upstate 08-115) (rat), sequence (P02466 86-1125, chain 2 of 2, further chain): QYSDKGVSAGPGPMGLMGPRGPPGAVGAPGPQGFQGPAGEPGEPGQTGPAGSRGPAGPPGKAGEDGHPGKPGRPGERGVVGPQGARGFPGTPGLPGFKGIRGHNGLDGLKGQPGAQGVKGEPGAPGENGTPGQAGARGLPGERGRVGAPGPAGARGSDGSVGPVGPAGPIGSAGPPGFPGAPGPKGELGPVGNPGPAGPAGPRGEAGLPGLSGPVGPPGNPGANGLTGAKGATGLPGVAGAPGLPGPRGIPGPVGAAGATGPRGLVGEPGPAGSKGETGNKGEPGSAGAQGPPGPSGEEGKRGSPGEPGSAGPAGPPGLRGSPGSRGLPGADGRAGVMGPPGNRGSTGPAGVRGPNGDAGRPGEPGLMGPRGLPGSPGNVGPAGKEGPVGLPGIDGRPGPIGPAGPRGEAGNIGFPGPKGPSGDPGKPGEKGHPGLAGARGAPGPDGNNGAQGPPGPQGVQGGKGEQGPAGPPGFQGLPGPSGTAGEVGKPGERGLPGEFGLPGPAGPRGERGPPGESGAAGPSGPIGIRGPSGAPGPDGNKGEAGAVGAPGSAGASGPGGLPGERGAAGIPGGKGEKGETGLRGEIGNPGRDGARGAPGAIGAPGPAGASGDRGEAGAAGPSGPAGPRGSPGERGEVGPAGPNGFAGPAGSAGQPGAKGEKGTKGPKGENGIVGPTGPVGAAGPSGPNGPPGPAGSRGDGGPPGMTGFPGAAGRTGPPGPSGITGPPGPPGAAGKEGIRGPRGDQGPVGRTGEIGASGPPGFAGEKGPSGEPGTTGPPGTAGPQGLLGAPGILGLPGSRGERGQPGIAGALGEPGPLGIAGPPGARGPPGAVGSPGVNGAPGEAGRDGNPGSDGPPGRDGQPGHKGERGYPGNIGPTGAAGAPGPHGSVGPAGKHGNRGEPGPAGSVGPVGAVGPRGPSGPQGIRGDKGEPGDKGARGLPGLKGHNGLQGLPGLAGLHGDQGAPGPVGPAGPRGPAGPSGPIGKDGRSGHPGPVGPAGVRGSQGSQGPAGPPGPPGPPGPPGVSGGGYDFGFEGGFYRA

human collagen type I (acid soluble, extracted from placenta, Sigma C7774) (human), sequence (P02452 162-1218 limits assumed, chain 1 of 2): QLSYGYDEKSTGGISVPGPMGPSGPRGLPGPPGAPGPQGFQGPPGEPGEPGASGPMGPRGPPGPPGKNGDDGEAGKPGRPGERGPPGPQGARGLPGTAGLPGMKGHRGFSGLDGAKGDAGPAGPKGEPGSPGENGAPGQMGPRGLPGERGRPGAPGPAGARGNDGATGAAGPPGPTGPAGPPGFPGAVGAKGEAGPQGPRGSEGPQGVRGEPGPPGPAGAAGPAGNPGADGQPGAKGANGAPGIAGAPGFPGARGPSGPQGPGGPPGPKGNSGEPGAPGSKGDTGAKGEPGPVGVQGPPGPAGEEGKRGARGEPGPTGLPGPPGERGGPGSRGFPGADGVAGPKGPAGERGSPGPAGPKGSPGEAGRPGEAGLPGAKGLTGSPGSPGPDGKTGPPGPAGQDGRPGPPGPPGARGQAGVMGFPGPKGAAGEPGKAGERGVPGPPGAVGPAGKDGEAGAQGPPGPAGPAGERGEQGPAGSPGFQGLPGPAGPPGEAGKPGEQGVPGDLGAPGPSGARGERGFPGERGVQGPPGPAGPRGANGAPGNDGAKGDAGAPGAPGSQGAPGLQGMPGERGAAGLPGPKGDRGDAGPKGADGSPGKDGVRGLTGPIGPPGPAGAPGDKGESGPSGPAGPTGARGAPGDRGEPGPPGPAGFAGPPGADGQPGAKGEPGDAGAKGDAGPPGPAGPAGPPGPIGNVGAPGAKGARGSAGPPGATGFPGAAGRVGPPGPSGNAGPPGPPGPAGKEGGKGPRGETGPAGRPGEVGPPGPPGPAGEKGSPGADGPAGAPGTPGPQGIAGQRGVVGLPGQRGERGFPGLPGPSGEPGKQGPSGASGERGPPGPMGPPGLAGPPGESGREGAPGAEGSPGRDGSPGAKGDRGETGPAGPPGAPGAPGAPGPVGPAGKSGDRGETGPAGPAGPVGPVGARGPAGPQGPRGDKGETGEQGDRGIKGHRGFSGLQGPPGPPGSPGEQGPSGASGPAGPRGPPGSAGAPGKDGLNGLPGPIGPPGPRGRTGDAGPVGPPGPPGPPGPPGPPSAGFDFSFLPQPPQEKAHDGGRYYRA
human collagen type I (acid soluble, extracted from placenta, Sigma C7774) (human), sequence (P08123 80-1119 limits assumed, chain 2 of 2, further chain): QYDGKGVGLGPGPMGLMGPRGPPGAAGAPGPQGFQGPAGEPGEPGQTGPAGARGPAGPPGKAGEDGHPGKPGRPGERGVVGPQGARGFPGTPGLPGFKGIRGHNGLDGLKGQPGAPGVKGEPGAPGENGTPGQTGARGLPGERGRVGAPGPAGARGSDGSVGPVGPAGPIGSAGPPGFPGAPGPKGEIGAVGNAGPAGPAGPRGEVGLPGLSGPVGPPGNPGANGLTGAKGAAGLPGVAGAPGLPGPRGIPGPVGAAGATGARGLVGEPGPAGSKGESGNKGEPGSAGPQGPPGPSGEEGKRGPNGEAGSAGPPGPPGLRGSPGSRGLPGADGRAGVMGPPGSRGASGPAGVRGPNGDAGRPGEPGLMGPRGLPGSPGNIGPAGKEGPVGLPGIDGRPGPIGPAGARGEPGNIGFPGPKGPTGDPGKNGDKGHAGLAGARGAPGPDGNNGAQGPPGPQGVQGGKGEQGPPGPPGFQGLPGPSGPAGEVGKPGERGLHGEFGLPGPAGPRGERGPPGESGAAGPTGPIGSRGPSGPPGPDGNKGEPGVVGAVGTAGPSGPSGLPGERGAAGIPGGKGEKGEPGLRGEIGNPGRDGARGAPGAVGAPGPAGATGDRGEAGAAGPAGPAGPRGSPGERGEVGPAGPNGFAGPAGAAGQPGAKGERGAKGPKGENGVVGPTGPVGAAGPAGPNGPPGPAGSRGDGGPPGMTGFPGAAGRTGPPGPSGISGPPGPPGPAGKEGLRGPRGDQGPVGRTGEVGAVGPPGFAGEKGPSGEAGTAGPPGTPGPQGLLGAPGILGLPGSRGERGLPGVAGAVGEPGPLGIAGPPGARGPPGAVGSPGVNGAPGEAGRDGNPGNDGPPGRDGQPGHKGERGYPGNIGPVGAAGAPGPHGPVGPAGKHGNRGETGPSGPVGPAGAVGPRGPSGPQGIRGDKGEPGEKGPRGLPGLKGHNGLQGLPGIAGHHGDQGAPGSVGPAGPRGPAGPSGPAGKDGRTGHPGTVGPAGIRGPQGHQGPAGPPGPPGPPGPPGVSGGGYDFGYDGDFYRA

Row | Dried Human Collagen Binding [1] | % Collagen Binding [1] | % Collagen Binding [2] | Binder
1 |  | 13% | 6% | GQWTCSGDE[dY]TWHCNYE (disulfide 5-14 (inferred); not fully specified (C-terminus); printed as Q W T C S G D E y T W H C N Y E) [SEQ ID NO: 171]
2 |  | 90% | 87% | GQWTCSGDEYTWHCNY[dE] (disulfide 5-14 (inferred); not fully specified (C-terminus); printed as Q W T C S G D E Y T W H C N Y e) [SEQ ID NO: 178]
3 |  | 5% | 4% | GQWTCSGDEYT[dW]HCNYE (disulfide 5-14 (inferred); not fully specified (C-terminus); printed as Q W T C S G D E Y T w H C N Y E) [SEQ ID NO: 173]
4 |  | 89% | 86% | DWTCSYDEYTWHCNYE [SEQ ID NO: 182]
5 |  | 49% | 35% | GQWTCSGD[dE]YTWHCNYE (disulfide 5-14 (inferred)) [SEQ ID NO: 170]
6 |  | 87% | 86% | DWTCSRDEYTWHCNYE [SEQ ID NO: 181]
7 |  | 73% | 63% | DWTCSLDEYTWHCNYE [SEQ ID NO: 183]
8 |  | 81% | 72% | DWTCSSDEYTWHCNYE [SEQ ID NO: 180]
9 |  | 11% | 4% | GQWTCSG[dD]EYTWHCNYE (disulfide 5-14 (inferred)) [SEQ ID NO: 169]
10 |  | 30% | 27% | GQWTCSGDEYTWHCN[dY]E (disulfide 5-14 (inferred); not fully specified (C-terminus); printed as Q W T C S G D E Y T W H C N y E) [SEQ ID NO: 177]
11 |  | 4% | 0% | GQWT[dC]SGDEYTWHCNYE (disulfide 5-14 (inferred)) [SEQ ID NO: 167]
12 |  | 81% | 75% | DWTCSADEYTWHCNYE [SEQ ID NO: 179]
13 |  | 2% | 2% | GQWTCSGDEYTWHC[dN]YE (disulfide 5-14 (inferred); not fully specified (C-terminus); printed as Q W T C S G D E Y T W H C n Y E) [SEQ ID NO: 176]
14 |  | 9% | 8% | GQWTCSGDEY[dT]WHCNYE (disulfide 5-14 (inferred); not fully specified (C-terminus); printed as Q W T C S G D E Y t W H C N Y E) [SEQ ID NO: 172]
15 |  | 3% | 2% | GQWTC[dS]GDEYTWHCNYE (disulfide 5-14 (inferred)) [SEQ ID NO: 168]
16 |  | 5% | 0% | GQWTCSGDEYTW[dH]CNYE (disulfide 5-14 (inferred); not fully specified (C-terminus); printed as Q W T C S G D E Y T W h C N Y E) [SEQ ID NO: 174]
17 |  | 2% | 2% | GQWTCSGDEYTWH[dC]NYE (disulfide 5-14 (inferred); not fully specified (C-terminus); printed as Q W T C S G D E Y T W H c N Y E) [SEQ ID NO: 175]

The remaining lines, values behind:

Row | Binder | Dried Human Collagen Binding [1] | % Collagen Binding [1] | % Collagen Binding [2]
18 | GWTCSQPGANVWNCTMQ (disulfide 4-14; not fully specified (C-terminus)) [SEQ ID NO: 85] | 3% |  | 
19 | LWTCSMDRNYDWVCGEK (disulfide 4-14; not fully specified (C-terminus)) [SEQ ID NO: 82] | 3% |  | 
20 | HWSCDLAMDNEWFCSTK (disulfide 4-14; not fully specified (C-terminus)) [SEQ ID NO: 84] | 3% |  | 
21 | GQ[dW]TCSGDEYTWHCNYE (disulfide 5-14 (inferred)) [SEQ ID NO: 165] |  | 2% | 4%
22 | GQWTCSADEYTWHCNYE (disulfide 5-14; not fully specified) [SEQ ID NO: 142] |  |  | 6%
23 | GQWTCSGDEYSWHCNY[dE] (disulfide 5-14 (inferred)) [SEQ ID NO: 125] |  | 85% | 86%
24 | TWMCVDPPLWRCWVQ (disulfide 4-12; also: C-terminus probably amidated (Rink amide resin)) [SEQ ID NO: 4] | 45% |  | 
25 | G[dQ]WTCSGDEYTWHCNYE (disulfide 5-14 (inferred)) [SEQ ID NO: 164] |  | 46% | 31%
26 | GQW[dT]CSGDEYTWHCNYE (disulfide 5-14 (inferred)) [SEQ ID NO: 166] |  | 2% | 3%
27 | GWACNTTSKGDWECTNL (disulfide 4-14; not fully specified (C-terminus)) [SEQ ID NO: 83] | 3% |  | 
28 | DWTCSGDEYAWHCNYE [SEQ ID NO: 120] |  | 38% | 28%
29 | GQWTCSGDEY[dA]WHCNA[dE] (disulfide 5-14 (inferred)) [SEQ ID NO: 124] |  | 24% | 17%
30 | YHACYQAGCWAW (disulfide 4-9; not fully specified) [SEQ ID NO: 137] |  |  | 7%
31 | GQWTCSGDEYAWHCNY[dE] (disulfide 5-14 (inferred)) [SEQ ID NO: 126] |  | 68% | 73%
32 | PWTCSGDEYAWHCNYE [SEQ ID NO: 121] |  | 57% | 72%
